We go through six proteins from US20250027068.

Numbering of substitutions follows the chain as printed.

B1: PRT-382 (protein)
chain: MVTSVWTKGVTPPTNFTYGEDVLHAPYVANQGWYDITKTFNGKDDLLCGAATAGNMLHWWFDQNKEQIENYLKKHPEKQKINFNGEQMFDVKEAIDTKDSQLDSKLFEYFKEKAFPYLSTKHLGVFPDHVIDMFINGYRLSLTNHGPTPVKRGSKDPRGGIFDAVFTRGDQSKLLTNRHDFKEKTLKEISDLIKQELTEGKALGISHTYANVRINHVINLWGADFDAEGNLEAIYVTDSDSNASIGMKKYVVGVNSNGKVAISAKEIEEDNIGAQVLGLFTLSTGQDIWNQTN
B2: PRT-390 (protein)
chain: B1 chain with M88L, V251F
B3: PRT-405 (protein)
chain: MVTSVWTKGVTPPADFTQGEDVFHAPYVANQGWYDITKTFNGKDDLLCGAATAGNMLHWWFDQNKEYIEAYLKKHPEKQKIMFGDQELLDVRKAINTKGSQKNSELFNYFRDKAFPNLSARRLGVMPDLVLDMFINGYYLNVTKTQTTDVNRTYQEKDKRGGIFDAVFTRGDQSKLLTSRHDFKEKGLKEISDLIKQELTEGKALGLSHTYANVRINHVINLWGADFDSDGNLKAIYVTDSDSNASIGMKKYGVGVNSAGKVAISAKEIKEDNIGAQVLGLFTLSTGQDIWNQTN
B4: PRT-413 (protein)
chain: MTITSVWTKGVTPPTPEDFRENNEDVLHAPYVANQGWYDITKTFDGKDNLLCGAATAGNMLHWWFDQNKEEIERYLKKHPEKQKIIFNNQELFDVKAAIDTKDSQTNSKLFNYFRDKAFPNLSARQLGVMPDLVLDMFINGYYLNLGKTQSTDVNRPYQDKDKRGGIFDAVFTRGDQTTLLTARHDLKNKGLNEISDLIKQELTEGKALALSHTYANVRINHVINLWGADFDAEGNLIAIYVTDSDANASIGMKKYFVGVNANGKVAISAKKIEGDNIGAQVLGLFTLSTGQDIWQKLS
B5: PRT-421 (protein)
chain: B4 chain with E21Y, N112D
B6: PRT-429 (protein)
chain: B4 chain with E21Y, N248R

The data set concerns the target pooled human IgG (human IgG1, 2, 3 and 4).
On to B1, for which the Enzyme Activity Endpoint Assay (purified): Fab′2 was 585 ng/µL, the Enzyme Activity Endpoint Assay (purified): Fc came out at 380 ng/µL, the Enzyme Activity Endpoint Assay (purified): IgG came to 0 ng/µL and the Enzyme Activity Endpoint Assay (purified): scIgG amounted to 226 ng/µL.
As to B2, the Enzyme Activity Endpoint Assay (purified): Fab′2 came to 578 ng/µL, the Enzyme Activity Endpoint Assay (purified): Fc came out at 371 ng/µL, the Enzyme Activity Endpoint Assay (purified): IgG stood at 0 ng/µL and the Enzyme Activity Endpoint Assay (purified): scIgG amounted to 227 ng/µL. The protein also came in with an Enzyme Activity Endpoint Assay: Fab′2 of 578 ng/µL, an Enzyme Activity Endpoint Assay: Fc of 371 ng/µL, an Enzyme Activity Endpoint Assay: IgG of 0 ng/µL and an Enzyme Activity Endpoint Assay: scIgG of 227 ng/µL.
B3 yielded an Enzyme Activity Endpoint Assay (purified): Fab′2 of 86 ng/µL, an Enzyme Activity Endpoint Assay (purified): Fc of 218 ng/µL, an Enzyme Activity Endpoint Assay (purified): IgG of 406 ng/µL and an Enzyme Activity Endpoint Assay (purified): scIgG of 558 ng/µL.
On to B4, for which the Enzyme Activity Endpoint Assay (purified): Fab′2 amounted to 485 ng/µL, the Enzyme Activity Endpoint Assay (purified): Fc came to 347 ng/µL, the Enzyme Activity Endpoint Assay (purified): IgG stood at 14 ng/µL and the Enzyme Activity Endpoint Assay (purified): scIgG came to 152 ng/µL.
B5 gave an Enzyme Activity Endpoint Assay (purified): Fab′2 of 612 ng/µL, an Enzyme Activity Endpoint Assay (purified): Fc of 340 ng/µL, an Enzyme Activity Endpoint Assay (purified): IgG of 71 ng/µL and an Enzyme Activity Endpoint Assay (purified): scIgG of 0 ng/µL.
In the case of B6, the Enzyme Activity Endpoint Assay (purified): Fab′2 came out at 528 ng/µL, the Enzyme Activity Endpoint Assay (purified): Fc came out at 348 ng/µL, the Enzyme Activity Endpoint Assay (purified): IgG is 57 ng/µL and the Enzyme Activity Endpoint Assay (purified): scIgG stood at 171 ng/µL.
